Source: patent US20220031857A1 (OSSIANIX, published 2022)

T1: recombinant mouse TfR2 (mouse, UniProt Q9JKX3 103-798, limits assumed)
T1 construct: Negative control protein
T1 sequence (looked up): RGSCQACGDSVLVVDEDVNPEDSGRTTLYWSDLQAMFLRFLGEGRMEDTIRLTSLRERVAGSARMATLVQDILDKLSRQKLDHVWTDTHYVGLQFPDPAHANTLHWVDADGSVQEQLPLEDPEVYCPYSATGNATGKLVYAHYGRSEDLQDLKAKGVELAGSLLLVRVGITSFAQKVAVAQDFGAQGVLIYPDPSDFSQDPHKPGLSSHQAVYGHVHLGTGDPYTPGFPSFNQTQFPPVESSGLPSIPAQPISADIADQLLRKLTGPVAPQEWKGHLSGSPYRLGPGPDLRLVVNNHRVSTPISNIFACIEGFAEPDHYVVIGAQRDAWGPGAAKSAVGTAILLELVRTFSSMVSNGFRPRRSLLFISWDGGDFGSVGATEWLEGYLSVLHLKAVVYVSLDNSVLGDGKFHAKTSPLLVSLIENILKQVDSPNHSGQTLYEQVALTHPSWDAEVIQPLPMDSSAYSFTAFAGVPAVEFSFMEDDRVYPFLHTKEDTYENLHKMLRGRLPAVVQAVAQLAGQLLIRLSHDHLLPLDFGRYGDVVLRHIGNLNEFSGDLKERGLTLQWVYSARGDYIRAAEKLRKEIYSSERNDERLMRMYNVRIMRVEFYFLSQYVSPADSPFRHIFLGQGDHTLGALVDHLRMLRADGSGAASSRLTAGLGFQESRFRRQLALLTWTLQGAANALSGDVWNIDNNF


Key:
Assay in all cases: phage ELISA
[1] = molecular target: T2, recombinant human TfR1 (transferrin receptor 1) (human, UniProt P02786 89-760)
T2 construct: Bought recombinant His-tagged protein; also called hTfR1

[2] = molecular target: T3, recombinant mouse TfR1 (transferrin receptor 1) (mouse, UniProt Q62351 89-763)
T3 construct: Bought recombinant His-tagged protein; also called mTfR1

recombinant mouse TfR2 = molecular target: T1, recombinant mouse TfR2

T3 sequence (Q62351 89-763 limits assumed): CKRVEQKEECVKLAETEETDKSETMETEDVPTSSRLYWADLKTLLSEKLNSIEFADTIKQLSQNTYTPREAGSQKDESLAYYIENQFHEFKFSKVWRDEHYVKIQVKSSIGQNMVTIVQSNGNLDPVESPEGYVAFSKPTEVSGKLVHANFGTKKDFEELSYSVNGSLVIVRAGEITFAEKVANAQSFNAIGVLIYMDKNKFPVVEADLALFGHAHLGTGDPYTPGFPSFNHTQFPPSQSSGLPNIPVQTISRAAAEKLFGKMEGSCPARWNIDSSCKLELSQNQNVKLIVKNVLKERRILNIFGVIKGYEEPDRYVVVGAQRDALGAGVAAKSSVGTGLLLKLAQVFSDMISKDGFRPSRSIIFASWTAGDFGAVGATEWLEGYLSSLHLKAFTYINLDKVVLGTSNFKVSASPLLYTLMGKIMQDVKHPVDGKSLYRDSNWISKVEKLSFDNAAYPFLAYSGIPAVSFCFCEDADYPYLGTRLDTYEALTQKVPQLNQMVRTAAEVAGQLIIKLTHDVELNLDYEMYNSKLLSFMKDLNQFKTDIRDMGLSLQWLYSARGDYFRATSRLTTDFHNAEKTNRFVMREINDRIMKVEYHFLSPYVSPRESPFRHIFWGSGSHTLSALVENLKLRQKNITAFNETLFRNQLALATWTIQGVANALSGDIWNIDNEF
T2 sequence (P02786 89-760 limits assumed): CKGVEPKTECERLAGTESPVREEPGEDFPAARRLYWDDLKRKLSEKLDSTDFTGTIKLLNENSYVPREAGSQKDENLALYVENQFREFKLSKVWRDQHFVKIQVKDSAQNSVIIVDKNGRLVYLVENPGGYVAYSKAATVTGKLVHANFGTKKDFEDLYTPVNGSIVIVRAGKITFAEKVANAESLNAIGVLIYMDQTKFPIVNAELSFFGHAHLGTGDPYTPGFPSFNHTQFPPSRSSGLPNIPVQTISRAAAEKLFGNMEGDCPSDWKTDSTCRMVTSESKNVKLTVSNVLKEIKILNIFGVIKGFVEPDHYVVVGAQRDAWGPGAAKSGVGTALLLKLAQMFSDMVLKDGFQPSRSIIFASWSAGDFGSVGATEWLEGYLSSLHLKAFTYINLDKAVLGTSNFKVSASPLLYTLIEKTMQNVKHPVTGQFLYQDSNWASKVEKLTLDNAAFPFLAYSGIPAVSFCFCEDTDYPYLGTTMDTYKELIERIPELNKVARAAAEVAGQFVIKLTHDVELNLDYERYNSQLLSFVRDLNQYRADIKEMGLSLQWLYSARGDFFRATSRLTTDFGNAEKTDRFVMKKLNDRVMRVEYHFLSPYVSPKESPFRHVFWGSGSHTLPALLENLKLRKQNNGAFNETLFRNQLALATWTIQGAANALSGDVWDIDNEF

Binder | binding result [1] | binding result [2] | binding result (recombinant mouse TfR2)
SEQ ID NO 22 (VNAR clone displayed on phage) (VNAR, shark VNAR domain on M13 phage; coat-protein fusion not described) VNAR: ARVDQTPQTITKETGESLTINCVLRDSNCALSSTYWYRKKSDSTNEESISKGGRYVETVNSGSKSFSLRINDLTVEDSGTYRCKVHSFNMDVCAEFQYSDVYGDGTAVTVNA | binds | binds | 
SEQ ID NO 26 (VNAR clone displayed on phage) (VNAR, shark VNAR domain on M13 phage; coat-protein fusion not described) VNAR: ARVDQTPQTITKETGESLTINCVLRDSNCALSNLYWYRKKSGSTNEENISKGGRYVETVNSGSKSFSLRINDLTVEDSGTYRCNVDVTRCTQSQDVYGGGTAVTVNA | binds | binds | 
SEQ ID NO 27 (VNAR clone displayed on phage) (VNAR, shark VNAR domain on M13 phage; coat-protein fusion not described) VNAR: ARVDQTPQTVTKETGESLTINCVLRDSNCALSNLYWYRKKSGSTNEESISLGGRYVETVNSGSKSFSLRINDLTVEDSGTYRCNVKHYVCMQSKDVYGGGTVVTVNA | binds | binds | 
SEQ ID NO 18 (VNAR clone displayed on phage) (VNAR, shark VNAR domain on M13 phage; coat-protein fusion not described) VNAR: ARVDQTPQTITKETGESLTINCVLRDSNCALPSTYWYRKKSGSTNEESISKGGRYVETVNSGSKSFSLRINDLTVKDSGTYRCNVQHIFQHNCYWFLYDVYGGGTAVTVNA | binds | binds | 
SEQ ID NO 32 (VNAR clone displayed on phage) (VNAR, shark VNAR domain on M13 phage; coat-protein fusion not described) VNAR: ARVDQTPQTITKETGESLTINCVLRDSNCALSNLYWYRKKSGSRNEESISKGGRYVETVNSGSKSFSLKINDLTVEDSGTYRCKVFGMRTHCQWVIYRITDVYGGGTAVTVNA | binds | binds | no binding
SEQ ID NO 13 (VNAR clone displayed on phage) (VNAR, shark VNAR domain on M13 phage; coat-protein fusion not described) VNAR: ARVDQTPQTITKETGESLTINCVLRDSNCALPSTYRYRKKSGSTNEESISKGGRYVETVNSGSKSFSLRINDLTVEDSGTYRCKVTMVRGRGCYQPARGQDVYGGGTAVTVNA | binds | binds | 
SEQ ID NO 21 (VNAR clone displayed on phage) (VNAR, shark VNAR domain on M13 phage; coat-protein fusion not described) VNAR: ARVDQTPQTITKETGESLTINCVLRDSNCALSSTYWYRKKSGSTNEESISKGGRYVETVNSGSKSFSLRINDLTVEDSGTYRCKVLTSQSQGGCVRVLYSDVYGDGTAVTVNA | binds | binds | 
SEQ ID NO 35 (VNAR clone displayed on phage) (VNAR, shark VNAR domain on M13 phage; coat-protein fusion not described) VNAR: ARVDQTPQTITKETGESLTINCVLRDSNCDLSRTYWYRKKSGSTNEESISKGGRYVETVNSGSKSFSLRINDLTVEDSGTYRCNVTWLDCHQCGASDVYGGGTVVTVNA | binds | binds | no binding
SEQ ID NO 33 (VNAR clone displayed on phage) (VNAR, shark VNAR domain on M13 phage; coat-protein fusion not described) VNAR: ARVDQTPQTITKETGESLTINCVLRDSNCDLSRTYWYRKKQGSTNEESISKGGRYVETVNSGSKSFSLRINDLTVEDSGTYRCNVALYHFTGCSRVQDVYGGGTVVTVNA | binds | binds | no binding
SEQ ID NO 25 (VNAR clone displayed on phage) (VNAR, shark VNAR domain on M13 phage; coat-protein fusion not described) VNAR: ARVDQTPQTITKETGESLTINCVLRDSNCALSNLYWYRKKSGSTNEESISLGGRYVETVNSGSKSFSLRINDLTVEDSGTYRCNVCLLQLAGYDSPYDVYGGGTAVTVNA | binds | binds | 
SEQ ID NO 30 (VNAR clone displayed on phage) (VNAR, shark VNAR domain on M13 phage; coat-protein fusion not described) VNAR: ARVDQTPQTITKETGESLTINCVLRDSNCALSNLYWYRKKSGSTNEESISLGGRYVETVNSGSKSFSLRINDLTVEDSGTYRCNVCQWLQWYGGEMEDVYGGGTAVTVNA | binds | binds | 
SEQ ID NO 29 (VNAR clone displayed on phage) (VNAR, shark VNAR domain on M13 phage; coat-protein fusion not described) VNAR: ARVDQTPQTITKETGESLTINCVLRDSNCALSNLYWYRKKSGSTNEESISLGGRYVETVNSGSKSFSLRINDLTVEDSGTYRCKVSTSVPRHYDNCRQRRHDVYGGGTAVTVNA | binds | binds | 
SEQ ID NO 38 (VNAR clone displayed on phage) (VNAR, shark VNAR domain on M13 phage; coat-protein fusion not described) VNAR: ARVDQTPQTITKETGESLTINCVLRDNNCALSSTLWYRTKSGSRNEESISKGGRYVETVNSGSKSFSLRINDLTVEDSGTYRCKVWQDSLSQPCESGCLDVYGGGTAVTVNA | binds | binds | no binding
SEQ ID NO 24 (VNAR clone displayed on phage) (VNAR, shark VNAR domain on M13 phage; coat-protein fusion not described) VNAR: ARVDQTPQTITKETGESLTINCVLRDSNCALSNLYWYRKKSGSTNEESISKGGRYVETVNSGSKSFSLRINDLTVKDSGTYRCNVLVSMFCQLAQDVYGDGTAVTVNA | binds | binds | 
SEQ ID NO 36 (VNAR clone displayed on phage) (VNAR, shark VNAR domain on M13 phage; coat-protein fusion not described) VNAR: ARVDQTPQTITKETGESLTINCVLRDSNCDLSRTYWYRKKSGSTNEESISKGGRYVETVNSGSKSFSLRINDLVVEDSGTYRCNVHSVSCIQRLDVYGGGTVVTVNA | binds | binds | no binding
SEQ ID NO 37 (VNAR clone displayed on phage) (VNAR, shark VNAR domain on M13 phage; coat-protein fusion not described) VNAR: ARVDQTPQTITKETGESLTINCVLRDSNCALSSTLWYRTKSGSRNEESISKGGRYVETVNSGSKSFSLRINDLTVKDSGTYRCNVQQGVVATCTSKRCDVYGGGTAVTVNA | binds | binds | no binding
SEQ ID NO 31 (VNAR clone displayed on phage) (VNAR, shark VNAR domain on M13 phage; coat-protein fusion not described) VNAR: ARVDQTPQTITKETGESLTINCVLRDSNCDLSRTYWYRKKSGSTNEESISKGGRYVETVNSGSKSFSLKINDLTVEDSGTYRCNVFLWNNYNPMDVYGGGTAVTVNA | binds | binds | 
SEQ ID NO 19 (VNAR clone displayed on phage) (VNAR, shark VNAR domain on M13 phage; coat-protein fusion not described) VNAR: ARVDQTPQTITKETGESLTINCVLRDSNCALPSTYWYRKKSGSTNEESISKGGRYVETVNSGSKSFSLRINDLTVEDSGTYRCNVGWSTQYYCVLPDVYGGGTAVTVNA | binds | binds | 
SEQ ID NO 34 (VNAR clone displayed on phage) (VNAR, shark VNAR domain on M13 phage; coat-protein fusion not described) VNAR: ARVDQTPQTITKETGESLTINCVLRDSNCDLSRTYWYRKKSGSTNEESISKGGRYVETVNSGSKSFSLRINDLVVEDSGTYRCNVAVFTRCHNQQDVYGGGTAVTVNA | binds | binds | no binding
SEQ ID NO 15 (VNAR clone displayed on phage) (VNAR, shark VNAR domain on M13 phage; coat-protein fusion not described) VNAR: ARVDQTPQTITKETGESLTINCVLRDSNCALPSTYWYCKKSGSTNEESISKGGRYVETVNSGSKSFSLRINDLTVKDSGTYRCKVHVRAQSLCCQCWYGDVYGDGTAVTVNA | binds | binds | 
SEQ ID NO 20 (VNAR clone displayed on phage) (VNAR, shark VNAR domain on M13 phage; coat-protein fusion not described) VNAR: ARVDQTPQTITKETGESLTINCVLRDSNCALPSTYWYRKKSGSTNEESISKGGRYVETVNSGSKSFSLRINDLTVEDSGTYRCNVYTSYCCSVADVYGGGTAVTVNA | binds | binds | 
SEQ ID NO 23 (VNAR clone displayed on phage) (VNAR, shark VNAR domain on M13 phage; coat-protein fusion not described) VNAR: ARVDQTPQTITKETGESLTINCVLRDSNCALSNLYWYRKKSGSTNEESISKGGRYVETVNSGSKSFSLRINDLTVEDSGTYRCNVINFFAMECEYQVGDVYGDGTAVTVNA | binds | binds | 
SEQ ID NO 28 (VNAR clone displayed on phage) (VNAR, shark VNAR domain on M13 phage; coat-protein fusion not described) VNAR: ARVDQTPQTITKETGESLTINCVLRDSNCALSNLYWYRKKSGSTNEESISLGGRYVETVNSGSKSFSLRINDLTVKDSGTYRCNVFSFSCQLLFDVYGGGTAVTVNA | binds | binds | 
SEQ ID NO 40 (VNAR clone displayed on phage) (VNAR, shark VNAR domain on M13 phage; coat-protein fusion not described) VNAR: ARVDQTPQTITKETGESLTINCVLRDSNCALSSTLWYRTKSGSRNEESISKGGRYVETVNSGSKSFSLRINDLTVEDSGTYRCNVQFSYNCNFWKDVYGGGTDVTVNA | binds | binds | no binding
SEQ ID NO 17 (VNAR clone displayed on phage) (VNAR, shark VNAR domain on M13 phage; coat-protein fusion not described) VNAR: ARVDQTPQTITKETGESLTINCVLRDSNCALPSTYWYRKKSGSTNEESISKGGRYVETVNSGSKSFSLRINDLTVKDSGTYRCNVARHWTQSCAYHRDVYGGGTAVTVNA | binds | binds | 
SEQ ID NO 14 (VNAR clone displayed on phage) (VNAR, shark VNAR domain on M13 phage; coat-protein fusion not described) VNAR: ARVDQTPQTITKETGESLTINCVLRDSNCALPSTYWYRKKSGSTNEESISKGGRYVETVNSGSKSFSLRINDLTVEDSGTYRCKVTFSAFEYCYVFKVQCDVYGDGTAVTVNA | binds | binds | 
